# Assay results from a protein production outcome set (Wang et al. 2014).
# Assay: label from the status in PepcDB records
# 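Also: failed if final PepcDB status was selected cloned or expressed and not failed if soluble or beyond.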
row,Sequence,protein production
1,AADHVKGDGKLTSKKISVADYNEIKVDGVIDFNYEQSDDPSTVEVTVDQNLHPYVNIEVKDRVLTIAFKGAKVDHFTKFIVKTNSKWLAAAKVSGNANFMVNSPLTGDETVIKANANSLVQLKETVTVGKLDLNVSGSANMVVNHLEADKIECDIDGSGSITIKKGNAKEGDYSIVSSGDIHAFGLAVPQLSCKVTGNGLAEVHATDNLKANVVGKGNIRYKGPTAVQQRIIGKGTVEEVKE,not failed
2,ADGILGVDKLGHFIFANESATKITGYSEEQILSSDLISLFAGDNKENLTFEDTEVYKAIQSKEVIRISNEYVLMSGARELPLEYSISPVEDDE,failed
3,ADNNKWKPLFGKNLENANYNPEVWSETDGVLGAVKDESIWTKDEYENFELDLDFKTDVGTNSGVVVYCTDTKDWIPNSVEIQIADDHCEKWGNGKPYEKCGAIYGHLGAVQDKVVKKPGEWNHMRIKCAGQHIMVILNGKKVTEMDMSKWTSGTKNPDGSDIPSWLPKPFAELPTKGFIGLQGKHGDSLIWFRNIKIRSL,not failed
4,ADPFASITHLVDSAMVNKTDSIDREKTSDEPKPIEADESFDDFIYNFASDDALQRQRVVFPLPYYNGERASKIDRKYWKHDDLFAKQSYYTLLFDREEDMDLVGDTSLTSVQVEWIFVKKRMVKKYYFERIKGAWMLEAINLRPIEENENEDFVEFFGHFATDSIFQSRRIRQPLVFVTTDPDDDFSILETTLDLNQWFAFKPALPADKLSNINYGQQNDDNASHKILALKGIGNGFSNILYFQRKDSGWELYKFEDTSI,not failed
5,ADVSATVSDMGSLLTAVTLAGVLDYYSVGTKVIKAPKKMVEQQILMTLQTMASLVESSGVDGLVKALNPELLSKAASSMHLLDQQKDLDAALEILTHL,not failed
6,AENNMVRLSRIIIDPERLEEYNAYLKEEIEVSMRLEPGVLVLYAVAEKERPNHVTILEIYADEAAYKSHIATPHFKKYKEGTLDMVQMLELIDATPLIPGLKMK,not failed
7,AGHRGQCVGRHREVVAIDNSKATNPHAADSALAGFSSVVWVAGGQLKGAEIDELIVRHAGRIKAVALLGVDRDVIEDSVRTHIPGIPVLSVSETDPRRAMDEAVAWSVSQAEAGDAIVLAPAAASLDMYTGMGQRGDMFATAIAQHLHD,failed
8,AGNETVTEGFKEGQVGSSAMPHKMNARSCERVGGLQVILRGYLTMVADLSGQQWNEGDVFCSVIRRVALPDAFFALDGMYETFLTVLAEFGAFPAMIDRELERYLPFLATTRILMAAVRVGVGRETAHEVIKENAVAVALNMRENGGEQDLIDRLAADERLPMTREQLDEALADRHAFIGAAESQVARVVDRVNDLVRRYPAAAQYTPGDIL,failed
9,AGQVVHTETTEVVLTADPVTGFGIQLQGSVFATETLSSPPLISYIEADSPAERCGVLQIGDRVMAINGIPTEDSTFEEANQLLRDSSITSKVTLEIEFDVAESVIPSSG,not failed
10,AGSMEDIPVEEAVLTGVATDNSEAKITVLGIPDSPGSASAVFRALADAEINIDTVLQNISSLEDNRTDITFTCPRADGPHAMELLRNLQAKNDWQNVLYDDQIGKVSLVGAGMKSHPGVTAEFCEALRDAGVNIELISTSEIRISVLIRESDVDVAARAIHEKFELGGETEAIVYAGTGR,failed
11,AHHDEVLDIPKGVEVYEIEGPFFFGIANRFEEIMNTLGDHPDVRIIRMRHVPFMDSTGMHNLENLIKMSRKEGVSIVLSGVRKDVHEELATAGIVELLGEENVCADIQAALRQAQAIAQGA,failed
12,AIAAAPIESLLNEICESEDPIEELKSLRTAVLATPVSGLRPAVSGARLEIIFSLLNTNDKEQIEVCVEILSRVLQALEPVQLAQNYRTALQSGLNHPDDSVKVLTLTQIGRVAGHTEGVTQMLNNVEILHDVIQCISVERIAVAKEAIAALSKLSNTKAGLDALFRSDLLNKLKDVMLTSDIIRYRVYELIVEVSTVSPVSLGYCANSGLISQMLEELTGDDVLVRATAIEMVTNLAQSQHGRQYLAQQGIMDKISSVQKIFGAHNYLKLKTYLNEGSYYVTAVSAVTTEGAD,failed
13,AIAAEAVLRVARRQLSQRGGSGAPILLRQMFEPVSCTFTYLLGDRESREAVLIDPVLETAPRDAQLIKELGLRLLYAVNTHCHADHITGSGLLRSLLPGCQSVISRLSGAQADLHIEDGDSIRFGRFALETRASPGHTPGCVTFVLNDHSMAFTGDALLIRGCGRTDFQQGCAKTLYHSVHEKIFTLPGDCLIYPAHDYHGFTVSTVEEERTLNPRLTLSCEEFVKIMGNLNLPKPQQIDFAVPANMRCGVQTPTA,failed
14,AIAAVKAQVLYDFTAEPGNNELTVHEGETLTITNQNVGGGWVEAQNSRGNVGLVPVDYVEVNSASAQAPATQYIDARNQGNNNSTANTQGVNGNEAWTATTWSNSYPADNWNYTEQEPAGNNGSVYSFDEEWDDDSDDGKSTGGYGGSQAEDGGTMQRSGAHSTMKLSLNKFPGFSKTPNPEVYLLTKHITKGNDRLSVYPGEVGPVWLYPQTQLDCVVADPKKGSKMYGLKSYIEYQITPNTTNRPVNHRYKHFDWLYERLVEKFACALPVPGLPDKQVTGRFEEEFIKMRMERLQGWMSRMCRHPVISNSEVFQLFLNYRDEKEWKLGKRKAEKDETVGVKIFSTIDPELPELDPAQVEQKYEVYNQFTRSMDNSVKELLAVGNLHWKRCTGPLQKEYRQIGKAFQNMSSVFNTSGYPRESTLTEALTATGKTYEEIAEVIAAQPRKDLHFLLETNNEYKGLLGCFPDTIGVHKAAIDKVKEADHLVMTNKISQQDKHTMEKNLSTMSYALQAEMNHFHSNRIYDYNRLMQFYLEEQVKFYETIAEKLKKALGQYTTI,failed
15,AIAEPGSPAGAGAEAPAFYSERKLSRKQLKKLAKAEREYEEERRKELEAAQAVDTAQKRELARIESILRTHALRMEYVEPDGHCLFRALVRQLRPLIQSGLFDTYFPAADTETRSALLTWSTIPDEMEAVWLLRKTLASFIRRRGTEFFPFIVGELDPQGTLLDASDDPAERVAQYCARLEDGTLWGGQPELQAVALALRCRVFVFADPEILPNGMLVMGADDASTDTGAESVTALRVSFHKQFFSLGEHYHAVVPADDSRGDARDPRISAS,not failed
16,AIAFKRKTAWFSDSVEKEVISFWVSEGGDISSWKTAGYLFSDDASSEDTKRIYGSEDYVKNRATVFHSSFLLACQPRQSVTSVPIGHYVLPPDFVQNEMKAIIGRFIWEKDEQVICEEQINPEVPKDILSGETEDHALRERSSQDDYQTVTSQSKVCSCCEMRQYPVNNMISGYVHIDQMRKYSGELKDFLPSLHGHDVSRSNDPTPPFHRKAV,failed
17,AIAKETEQVSEAPHGLEGAWLDLTNRVRVSGDTVEACSAFSIGPPRCRWLLQATDRGVNCAALDHYVPHICGTHTETVYHIAHHRYIKRAVCEIPFFRFHKARIQVCTAKIACTEQVLPSADTDYPCLEPNDLIVGPSALNRAPRYTRAQDSTIEALILIVVGPDGTSDWRDGKLDDRPPYLTPAAIESLATRYPNMRHLLTNLPSVDRRRDGGLVRSHRAFFATDFAGDGTPSESPQKTITELLRVPPDWQLYDDAEGVVCISLAPIEGLDAIPSSVYFKSH,failed
18,AIAPVKKKRKAPGVAAAVAEDAGLKKCKIPSYCRSQPPARLISGEEDFSRKKCLAWFYEYAGPDEVVGPEGMEKFCEDIGVEPENIIMLVLAWKLEAESMGFFTKEEWLKGMTSLQCDCTEKLQSRFDFLRSQLNDISSFKNIYTYAFDFARDKDQRSLDIDTAKSMLALLLGRTWPLFSVFYQYLEQSKYRVMNKDQWYNVLEFSRTVHADLSNYDEDGAWPVLLDEFVEWQKNPSNIIARTVVKTMQTL,failed
19,AIASERLYYFVIVGRDDRVLYDLLYPASLSELDWRTSSELSSPAERGDFEPHHFIPSIQVLLQFVAYSALDHIEEKYWLTSARSLKHIFRFRDWSASVQLTPNAATRFVLVHGASDDASRNVRAFLHAVYEAYVPHVVCNPFQEEDAPITSKRFHEVAKNLAKRYFSG,failed
20,AIASNSLEEKKSYFSNRVNLLVENIGTSLRDLLRQGADSSDWNEYAGNLELHLSIENISRDLEELLTLSFEIEVLTLEGNLPQVMSETDGVEAAIQKRIAELNFALEQTGVFSGFSFLYDVNFQQIVEKATRALQKVSDYTPWVLDDGHNM,failed
21,AIREFNTKEKVFNEFTAVFDVLNHLPAFAKLHLANSMSVRYANTLGISQRNAEVFANRGTSGIDGVISTAYGYALKTSQLVTIITGDLAFFYDRNAFWNNYKPSNLRVVLLNNHGGGIFRMIDGPSALPELDELFETKQTLSARYLATEHGLEYTLCKNLNGLNQALESFFQPSMFGKILEIETDSVKN,failed
